Consider 3 proteins from article PMC3102065, “The Hexameric Structures of Human Heat Shock Protein 90” (PLoS ONE, 2011).

Series [1] deals with the molecule itself. Description: AUC; sedimentation velocity of fractions from the S-300 column, 0.3 mg/ml in 100 mM Tris-HCl, 45,000 rpm, 20°C, c(s) distribution (SEDFIT).
Series [2] deals with the molecule itself. The series is described as follows: crystal structure; MC-HSP90 in three crystal forms (C222_1 with cis-DEP, P2_1 with cisplatin, R32 with Silver Bullets No. 18); 2.5 M ammonium sulfate, 0.1 M tri-sodium citrate pH 5.4-5.8; molecular replacement.
Series [3] deals with the molecule itself. The series is described as follows: crystal structure; MC-HSP90-Ct, P6_322 crystal; 2.6 M ammonium sulfate, 0.1 M tri-sodium citrate pH 5.0, Silver Bullets No. 70; molecular replacement.

Several values for one entry are separate records, joined by “and”; a condition that tells them apart may be missing. Identical values can stand only once.

B1: MC-HSP90 (N-terminal truncated human HSP90α, middle segment and carboxy-terminal domain, residues 293–732) (domain or fragment)
chain: not shown
notes: two extra Ala residues encoded after the Factor Xa cleavage site; found at the N-terminus by MALDI-MS of the dissolved crystal; human heat shock protein 90α, residues 293-732 (M and C domains), from a full length cDNA (NM_005348.2; 732 residues); In solution a mixture of dimer, tetramer and hexamer; The reverse primer encodes six His after the last residue; also called truncated HSP90; wild-type …
The term stoichiometry N denotes a count of units in the complex or per binding partner. Turning to B1, the “stoichiometry N” value in series [1] was 2 and 4; in series [2] it was 6.

B2: MC-HSP90 W320A (domain or fragment)
chain: not shown
notes: two extra Ala residues encoded after the Factor Xa cleavage site (made on the plasmid pGEX-6p-1-MC-HSP90); human heat shock protein 90α, residues 293-732, with W320A; also called mutant W320A; mutant protein W320A of MC-HSP90; source: E. coli BL21 (DE3), expressed and purified as the wild-type MC-HSP90; not shown: GST, N-terminal, cleaved
Consider B2, for which the “stoichiometry N” value in series [1] is 6 and 2 and 4.

B3: MC-HSP90-Ct (human HSP90α residues 293–697, C-terminal 35 residues also truncated) (domain or fragment)
chain: not shown
notes: two extra Ala residues encoded after the Factor Xa cleavage site (same forward primer as MC-HSP90); human heat shock protein 90α, residues 293-697; Purified by a protocol similar to that of MC-HSP90; The reverse primer printed for this construct appears to encode eight His; also called C-terminal tail truncated MC-HSP90-Ct; source: E. coli BL21 (DE3), purified (Ni-NTA, Factor Xa cleavage, second …)
For B3, the “stoichiometry N” value in series [3] is 6.
